{"source": "the RNAGym collection of RNA variant scans (doi:10.1073/pnas.2313332121)", "parents": {"B1": {"name": "TPR 5TU (parent)", "chain": "GGAUCUUCUCGAUCUAACAAAAAAGACAAAUCUGCCACAAAGCUUGAGAGCAUCUUCGGAUGCAGAGGCGGCAGCCUUCGGUGGCGCGAUAGCGCCAACGUUCUCAACUAUGACACGCAAAACGCGUGCUCCGUUGAAUGGAGUUUAUCAUG"}}, "note": "Variants at the floor of the assay were thinned out."}
{"variants_of": "B1", "assay": "polymerase ribozyme fitness, log enrichment relative to wild type (log ratio); higher = more active; in vitro selection for triplet polymerase activity", "method_in_brief": "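Fitness compares each genotype's enrichment to that of the wild type on a logarithmic scale, averaging replicates with inverse-variance weights. The logarithm is base 2. Enrichment came from Illumina sequencing of input and output libraries after one triplicate round of in vitro selection, which included frozen incubation at −7 °C, of PCR-built, transcribed mutant libraries of each subunit of a heterodimeric triplet polymerase ribozyme. Only genotypes with ≥10 input reads and ≥1 read per output were kept.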"}
{"variant": "U13G U82A C96U U130A", "polymerase ribozyme fitness (log ratio)": -3.83}
{"variant": "G84C U102A A147U", "polymerase ribozyme fitness (log ratio)": -3.01}
{"variant": "A41U", "polymerase ribozyme fitness (log ratio)": -0.621}
{"variant": "C18U C57A C95U C96A", "polymerase ribozyme fitness (log ratio)": -1.46}
{"variant": "U55A C85A C93G", "polymerase ribozyme fitness (log ratio)": "≤ -4.2"}
{"variant": "A12C A21C C35A G58U U135G", "polymerase ribozyme fitness (log ratio)": -4.1}
{"variant": "A16G A47G G50C G59A G83U C114A", "polymerase ribozyme fitness (log ratio)": "≤ -4.2"}
{"variant": "U13C C51U G59C G92U A115G G143C", "polymerase ribozyme fitness (log ratio)": -3.61}
{"variant": "A47G G81C", "polymerase ribozyme fitness (log ratio)": 0.162}
{"variant": "G59C G65C G136U", "polymerase ribozyme fitness (log ratio)": "≤ -4.2"}
{"variant": "C32G C72G C87A A98G", "polymerase ribozyme fitness (log ratio)": "≤ -4.2"}
{"variant": "A23U U56A C93A U101G U127A A137U U139A C149A", "polymerase ribozyme fitness (log ratio)": "≤ -4.2"}
{"variant": "A24C C69A C105A C114U A122U", "polymerase ribozyme fitness (log ratio)": "≤ -4.2"}
{"variant": "C85U A119C", "polymerase ribozyme fitness (log ratio)": -0.984}
{"variant": "A52G C54U G58C G86A A89U", "polymerase ribozyme fitness (log ratio)": -3.29}
{"variant": "A29G U53A", "polymerase ribozyme fitness (log ratio)": -3.63}
{"variant": "C57A G94C", "polymerase ribozyme fitness (log ratio)": 0.0611}
{"variant": "C57A C131G", "polymerase ribozyme fitness (log ratio)": -3.13}
{"variant": "A37C C95G U134G", "polymerase ribozyme fitness (log ratio)": -3.26}
{"variant": "C14U A17U C38G A60U", "polymerase ribozyme fitness (log ratio)": -2.73}
{"variant": "C54U C76U C87U U127A U139C A142U C149G", "polymerase ribozyme fitness (log ratio)": "≤ -4.2"}
{"variant": "G58C G71C G92U C96U U145A", "polymerase ribozyme fitness (log ratio)": "≤ -4.2"}
{"variant": "A39U C99U U146G", "polymerase ribozyme fitness (log ratio)": -2.56}
{"variant": "A52C A107C A122C A138G", "polymerase ribozyme fitness (log ratio)": "≤ -4.2"}
{"variant": "C8A A41U C76U A98G C116G G143C", "polymerase ribozyme fitness (log ratio)": "≤ -4.2"}
{"variant": "A23C A40U G48U G94C C99G U144A", "polymerase ribozyme fitness (log ratio)": "≤ -4.2"}
{"variant": "A19G A49U U55A C96U", "polymerase ribozyme fitness (log ratio)": -1.84}
{"variant": "U55G C85U A91G G94A", "polymerase ribozyme fitness (log ratio)": -3.29}
{"variant": "U13G G83C C125G G133A U145G", "polymerase ribozyme fitness (log ratio)": "≤ -4.2"}
{"variant": "C36A U55A G124A G141U", "polymerase ribozyme fitness (log ratio)": "≤ -4.2"}
{"variant": "U4G G141U", "polymerase ribozyme fitness (log ratio)": 0.552}
{"variant": "A21U G92C", "polymerase ribozyme fitness (log ratio)": 0.0736}
{"variant": "U13A A41C C43G A60C A138G A150G", "polymerase ribozyme fitness (log ratio)": "≤ -4.2"}
{"variant": "A12C A41G C87A A89C U144A", "polymerase ribozyme fitness (log ratio)": "≤ -4.2"}
{"variant": "C57G G59A", "polymerase ribozyme fitness (log ratio)": -0.436}
{"variant": "A37U A66U C76A U102A G141C", "polymerase ribozyme fitness (log ratio)": "≤ -4.2"}
{"variant": "U7G A41U U53A C54U U56A C57A G71U C95A G112C", "polymerase ribozyme fitness (log ratio)": "≤ -4.2"}
{"variant": "C18G A40U A47U U101G", "polymerase ribozyme fitness (log ratio)": -0.397}
{"variant": "A37C C51A G92U A106C", "polymerase ribozyme fitness (log ratio)": "≤ -4.2"}
{"variant": "U56G C96A", "polymerase ribozyme fitness (log ratio)": -1.15}
{"variant": "C8U A20G A26U U56A C96U C105U G128C", "polymerase ribozyme fitness (log ratio)": "≤ -4.2"}
{"variant": "U55G U104A A122G A137C", "polymerase ribozyme fitness (log ratio)": "≤ -4.2"}
{"variant": "C51U U104G", "polymerase ribozyme fitness (log ratio)": -1.04}
{"variant": "C85G C116U U144G", "polymerase ribozyme fitness (log ratio)": -0.537}
{"variant": "A22G C95U A119G", "polymerase ribozyme fitness (log ratio)": 0.832}
{"variant": "U61G", "polymerase ribozyme fitness (log ratio)": -1.25}
{"variant": "A47U U61G U134A", "polymerase ribozyme fitness (log ratio)": -3.8}
{"variant": "G65C", "polymerase ribozyme fitness (log ratio)": "≤ -4.2"}
{"variant": "C38G C69A C85A C96A A97C", "polymerase ribozyme fitness (log ratio)": -3.84}
{"variant": "G81A C95A A147C", "polymerase ribozyme fitness (log ratio)": 0.16}
{"variant": "A23U G34A U53G G74A U139A", "polymerase ribozyme fitness (log ratio)": "≤ -4.2"}
{"variant": "U55G C93U C116U G141A U144G", "polymerase ribozyme fitness (log ratio)": -2.63}
{"variant": "C8U A16C A19U G59U A60G C93U", "polymerase ribozyme fitness (log ratio)": "≤ -4.2"}
{"variant": "A40U C54U G70C G117U G128C A137G", "polymerase ribozyme fitness (log ratio)": "≤ -4.2"}
{"variant": "G25U C36G A97G U109C", "polymerase ribozyme fitness (log ratio)": "≤ -4.2"}
{"variant": "G58C G124C", "polymerase ribozyme fitness (log ratio)": -0.411}
{"variant": "A52G G74A C87U C131U A142G", "polymerase ribozyme fitness (log ratio)": -3.99}
{"variant": "U56A G88C U145G", "polymerase ribozyme fitness (log ratio)": -4.05}
{"variant": "A40C A60G G62U G68A A97U G141A A142G", "polymerase ribozyme fitness (log ratio)": "≤ -4.2"}
{"variant": "A21U G50C U53A", "polymerase ribozyme fitness (log ratio)": -3.62}
{"variant": "U53A U61G C99U G136A", "polymerase ribozyme fitness (log ratio)": -3.67}
{"variant": "A21C A91C U127C", "polymerase ribozyme fitness (log ratio)": "≤ -4.2"}
{"variant": "C54A G71A G88C A110G", "polymerase ribozyme fitness (log ratio)": "≤ -4.2"}
{"variant": "A19U G92U A150C", "polymerase ribozyme fitness (log ratio)": -2.67}
{"variant": "C18U U55A A73G G86A G94C", "polymerase ribozyme fitness (log ratio)": "≤ -4.2"}
{"variant": "U82G G88C C93U C95G", "polymerase ribozyme fitness (log ratio)": "≤ -4.2"}
{"variant": "U31G A40G C54A C93A C103A U109A U134A G136U", "polymerase ribozyme fitness (log ratio)": "≤ -4.2"}
{"variant": "A39G U144C", "polymerase ribozyme fitness (log ratio)": -2.67}
{"variant": "U7G C103A", "polymerase ribozyme fitness (log ratio)": -3.85}
{"variant": "C32A G86C", "polymerase ribozyme fitness (log ratio)": "≤ -4.2"}
{"variant": "A106C G141U", "polymerase ribozyme fitness (log ratio)": 0.961}
{"variant": "A21U A73G C79G G84U C149G", "polymerase ribozyme fitness (log ratio)": "≤ -4.2"}
{"variant": "A60C C85U A119C G124A", "polymerase ribozyme fitness (log ratio)": -1.25}
{"variant": "C57A U145C", "polymerase ribozyme fitness (log ratio)": 0.674}
{"variant": "A47C U104G", "polymerase ribozyme fitness (log ratio)": -0.804}
{"variant": "A23G C27A C32U G50C A73G C85G", "polymerase ribozyme fitness (log ratio)": "≤ -4.2"}
{"variant": "A12U C14G A20G A73G U77A G86U C96U G117U", "polymerase ribozyme fitness (log ratio)": "≤ -4.2"}
{"variant": "A73U G81A C118G A120U U135A", "polymerase ribozyme fitness (log ratio)": -3.75}
{"variant": "G50C A52G G62A G74U G86C C116U", "polymerase ribozyme fitness (log ratio)": "≤ -4.2"}
{"variant": "U45G A49C G62C G94C C118G", "polymerase ribozyme fitness (log ratio)": "≤ -4.2"}
{"variant": "A3U A30G G86C C96U", "polymerase ribozyme fitness (log ratio)": -4}
{"variant": "U56A U127G", "polymerase ribozyme fitness (log ratio)": -2.83}
{"variant": "U45G U56A G88A C93G A119G G143U", "polymerase ribozyme fitness (log ratio)": "≤ -4.2"}
{"variant": "U13G C32A C93A U127G", "polymerase ribozyme fitness (log ratio)": "≤ -4.2"}
